# Reference: patent US8372950B2, “IgG binding peptide” (Kagoshima University, priority 2006, dated 2013)
# Assay: molecular sieve chromatography of acid-denatured MRA
# Type: physicochemical
# Conditions: acid treated pH 2.7, 30° C., 10 minutes, purified on IMGpep-4K6R column, FIG. 15C
# Experimental: First, 20 μl of 1 M glycine-HCl (pH 2.7) was added to 200 μl of humanized anti-human IL-6 receptor IgG antibody (MRA) (2000 μg/ml, PBS solution). The solution was incubated for 10 minutes at 30° C. and then 30 μl of 1 M Tris-HCl (pH 8.7) was added thereto for neutralization to prepare an acid-treated antibody sample. Also, a biotinylated IMGPep-4K6R peptide-immobilized column was prepared in a manner similar to that in Example 10. An acid-treated antibody sample was injected at a flow rate of 0.4 ml/min to the column and then gradient elution was carried out using from 20 mM phosphate buffered saline (PBS, pH 7.0) containing 0.1M NaCl to 0.1M glycine-HCl (pH 2.5) containing 0.1M NaCl. The thus eluted IgG was a purified acid-denatured humanized anti-human IL-6 receptor IgG antibody (MRA).
# Subsequently, the purified acid-denatured MRA was subjected to molecular sieve chromatography using a HiLoad Sperdex 200 16/60 column (GE Healthcare). Similarly, untreated MRA, an acid-treated antibody sample, and a flow-through fraction (undenatured MRA) obtained via injection of an acid-treated antibody sample to a biotinylated IMGPep-4K6R peptide-immobilized column, were also separately subjected to molecular sieve chromatography using a HiLoad Sperdex 200 16/60 column (GE Healthcare). […]
substance,measurement,value
"MRA: Humanized anti-human IL-6 receptor monoclonal IgG antibody, Chugai Pharmaceutical",monomers in purified acid-denatured MRA,approximately 65%
